The record followed here is US20250347705, “Epitope-Specific hCG Binding Aptamers and Applications Thereof” (Rhodes University, published 2025).

In series [1] the target is bovine serum albumin (BSA) (UniProt P02769 P02769:25-607). Description: ELONA; BSA control beads, not different from No DNA. The procedure: Protein-modified magnetic beads were prepared by functionalising 1 mg of epoxy beads with either 10 μg of hCG or negative control proteins BSA or HSA (as in Example 2). Once functionalised, aliquots of the beads corresponding to 72 μg beads were added to individual wells of a 96-well plate which were pre-blocked with 3% w/v milk powder (in HMCKN-T buffer composed of 20 mM HEPES, 2 mM MgCl₂, 2 mM CaCl₂, 2 mM KCl, 150 mM NaCl, pH 7.4, supplemented with 0.002% v/v TWEEN 20.) Bead samples were prepared in triplicate.
bovine serum albumin (BSA), sequence (P02769 25-607, one chain of several): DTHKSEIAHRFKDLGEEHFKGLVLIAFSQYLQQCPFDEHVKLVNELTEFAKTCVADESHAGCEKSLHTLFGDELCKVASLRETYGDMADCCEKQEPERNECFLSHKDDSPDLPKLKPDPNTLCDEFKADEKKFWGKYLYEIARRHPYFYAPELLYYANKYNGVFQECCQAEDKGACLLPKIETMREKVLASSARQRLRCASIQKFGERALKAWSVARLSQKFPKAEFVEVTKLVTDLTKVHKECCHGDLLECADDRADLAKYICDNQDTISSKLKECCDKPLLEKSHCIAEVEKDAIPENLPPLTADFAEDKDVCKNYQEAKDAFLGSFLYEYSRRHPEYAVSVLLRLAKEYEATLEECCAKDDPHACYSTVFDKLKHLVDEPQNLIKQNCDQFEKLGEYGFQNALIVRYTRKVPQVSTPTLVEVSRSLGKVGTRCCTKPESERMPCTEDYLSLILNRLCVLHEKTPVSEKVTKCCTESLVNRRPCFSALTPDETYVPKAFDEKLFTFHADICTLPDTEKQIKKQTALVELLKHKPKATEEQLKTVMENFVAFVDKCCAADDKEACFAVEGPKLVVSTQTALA
A variation of the qPCR assay (FIG. 9) was employed using biotinylated aptamer sequences, creating a colourimetric ELONA (FIG. 10). During the colourimetric ELONA study, 5′ biotinylated full-length aptamer sequences were exposed to protein-modified beads—either hCG target or Bovine Serum Albumin (the bovine equivalent of HSA). After rinsing unbound aptamers from the beads, the colorimetric signal, proportional to the amount of biotinylated aptamer present, was generated by the addition of HRP-conjugated streptavidin and the subsequent HRP-catalysed oxidation of TMB.

Series [2] deals with human chorionic gonadotropin (hCG), alpha/beta heterodimer (Homo sapiens, UniProt P01215;P0DN86 P01215:25-116,P0DN86:21-165). Description: EMSA; very slight band decrease; ELONA signal similar to No DNA. Conditions: tags: Abcam ab126652, isolated from human urine, >=50% pure; label: 5' biotin. Background: A gel shift assay detects complexes by their altered migration in electrophoresis.
human chorionic gonadotropin (hCG), alpha/beta heterodimer, sequence (P01215 25-116, chain 1 of 2, other chains not shown): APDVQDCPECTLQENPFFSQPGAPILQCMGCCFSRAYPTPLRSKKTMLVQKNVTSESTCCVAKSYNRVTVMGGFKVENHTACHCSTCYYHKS

On to CAAGGATCGGCTCAACTTAATATTGGAGGGATAGTGTTGG (ssDNA) [R5_4 truncated], for which the binding result in series [1] (label: 5' biotin) is given as “no binding”.

TGGACGAGGTATCTCGTATCATTGGCACCTAAAACTCCGT (ssDNA) [R4_1 truncated (amplification artefact control)]: the binding result in series [2] and in series [1] (label: 5' biotin) was “no binding” in each case.

Turning to ACCTGCTGACATTGGGTGGGTCCTGAACCATTTTTAATCA (ssDNA) [R4_64 truncated], the binding result in series [1] (label: 5' biotin (3' biotin variant also used)) is “no binding”.

As to CAACTATTTCAGTATTCTAGAAAGGTCAAACCTTAGGAGC (ssDNA) [R6_5 truncated], the binding result in series [1] (label: 5' biotin) is on record as “no binding”.
